Source: the supplement of paper PMC9732359
± gives the uncertainty stated by the source.

Test: protein stability index of a GFP-peptide fusion (yeast GPS) (PSI 1-4); higher = more stable; sorted into four equal gates, so the index is relative within each strain
Conditions: san1∆
Procedure, shortened: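 For each peptide, the protein stability index sums the read frequency in every gate after multiplying it by the gate number. Read frequencies came from plasmids that were PCR-amplified from each gate and Illumina-sequenced, with reads assigned to strains by barcodes. The gates were four equal bins of GFP/Cherry fluorescence ratio applied to mid-log yeast in leucine-free medium carrying a pooled library of tiled 17-residue yeast protein peptides fused downstream of GFP on a Cherry-expressing plasmid.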

| Sequence | protein stability index |
| --- | --- |
| LVAIFGGQGNTDDYFEE [FAS1] | 3.26 ± 0.065 |

Same assay, conditions: ubr1∆

| Sequence | protein stability index |
| --- | --- |
| LLTVEEGQLKPGDGSSY [RPC25] | 3.27 ± 0.14 |
| LLWTPKKLEITSDGALS [RPR2] | 2.4 ± 0.034 |
| LMAQIFFGPTYYQRLRH [RPB2] | 2.04 ± 0.031 |
| LMEASDAFRVHICGICG [RPB2] | 2.5 ± 0.072 |
| LMEIHNILKVDSNSSSS [RGR1] | 2.42 ± 0.049 |
| LMLGSVNLPGGILRRKS [RRP4] | 1.4 ± 0.047 |
| LMRQGVLGIKVKIMRDP [RPS3] | 2.74 ± 0.051 |
| LNAKYQSLGLDDLQKFN [ISW2] | 2.7 ± 0.044 |
| LNCCGSVARVEDHDVHS [IRR1] | 2.45 ± 0.06 |
| LNEMLNTRKNMSISLES [DIS3] | 2.95 ± 0.051 |
| LNHILEKSTQLQQKHEL [YGR119C/NUP57] | 2.82 ± 0.035 |
| LNISPFTFGLTVVQVYD [RPP0] | 1.2 ± 0.044 |
| LNKEKLGPLFKKIVDDT [IRR1] | 2.94 ± 0.076 |
| LNLDSEQTVEYMVSRAI [RPN3] | 2.83 ± 0.11 |
| LNLQFKAKVDDLVLGKP [YLR335W/NUP2] | 3.3 ± 0.078 |
| LNSYHIKNGRIYFTVPN [RGR1] | 2.33 ± 0.037 |
| LNVVLDDAMEINGEDPA [SMX2] | 3.2 ± 0.067 |
| LNWFRTTNMNVNNCIWA [RGR1] | 1.28 ± 0.036 |
| LNYGNICEPKETLSIFT [YJL039C/NUP192] | 1.73 ± 0.054 |
| LPAYSGEIGDFFSSDWR [POP1] | 3.16 ± 0.096 |
| LPFMQNAGPNSNIPNLL [YDL088C/ASM4] | 2.52 ± 0.029 |
| LPFYAILRSIPDKLLGV [COB] | 1.99 ± 0.046 |
| LPGTEKGRKTNKYANND [CSL4] | 3.41 ± 0.19 |
| LPHSPLWELALAFIPNI [YML031W/NDC1] | 1.08 ± 0.05 |
| LPKYKEKKAASAKQTAP [MED7] | 2.61 ± 0.066 |
| LPLFYDLLNAASIESAD [IRR1] | 2.78 ± 0.048 |

| Sequence | protein stability index |
| --- | --- |
| LPLPPSVEWMKVSPSMC [SIN4] | 1.55 ± 0.063 |
| LPLWHLLNRIPRMYHIG [POP1] | 2.63 ± 0.15 |
| LPLYEKNTLLERLKQLT [SWP82] | 2.87 ± 0.22 |
| LPNQIPGEYITTIKAIF [YMR129W/POM152] | 3.11 ± 0.041 |
| LPRCSKEEFRLMISPKD [RRI2] | 1.67 ± 0.044 |
| LPSHIISTSDVTRIINS [RPL4A] | 2.55 ± 0.029 |
| LPTRGTLESLENLVVAD [COR1] | 2.89 ± 0.042 |
| LPYERHMISQEGIKETQ [SWI1] | 1.27 ± 0.065 |
| LQEAIDFAQKEINGDDD [PRE10] | 2.96 ± 0.076 |
| LQEKEQLYFKKKVNYKV [ISW2] | 3.48 ± 0.12 |
| LQELIVNGPNVHPGANY [RPO31] | 2.45 ± 0.047 |
| LQHLRSRCHLVTKDTKK [SRP68] | 3.12 ± 0.056 |
| LQKQMGIGSLTDLMSIV [RPC34] | 1.86 ± 0.14 |
| LQLAPGAHLGRFVIWTE [RPL4A] | 3.27 ± 0.08 |
| LQLASLQQKQRDLILKK [SMC3] | 2.68 ± 0.13 |
| LQNNSDSESDSDSETNH [SKP1] | 2.82 ± 0.082 |
| LQPVIPGGAASKSVPTP [SNF5] | 3.13 ± 0.053 |
| LQQELATTQDQVASIIE [NUT2] | 2.98 ± 0.037 |
| LQQICRVRNKDIRKFLD [RPL9A] | 2.31 ± 0.054 |
| LQQKQQQRFQALQQQQQ [SWI1] | 1.56 ± 0.063 |
| LQVLKRERDGIKEDIEK [SMC1] | 2.75 ± 0.23 |
| LQYIIHDTLNNEIANSI [BRR2] | 2.76 ± 0.056 |
| LQYYILEYMNTARINNR [RRI2] | 1.93 ± 0.12 |
| LRELDVELIESKINELS [SMC4] | 3.35 ± 0.047 |
| LRGEYNDLQSETKTKKE [SMC4] | 2.82 ± 0.066 |
| LRGSLLSRKPSDNKKRS [RPC82] | 3.01 ± 0.13 |

| Sequence | protein stability index |
| --- | --- |
| LRIVKPTVSLTINLDRF [RPC82] | 2.43 ± 0.11 |
| LRKIQALRDVKNNNNAN [GAL11] | 3.11 ± 0.071 |
| LRLLLLLIEFPYLPKHY [YJR042W/NUP85] | 1.76 ± 0.047 |
| LRLSNFFTIDHFIQKLH [SIR2] | 2.05 ± 0.068 |
| LRNKLIESNKLAGVLYE [RRP6] | 2.73 ± 0.18 |
| LRNVFLGKCSRITDASL [GRR1] | 2.82 ± 0.05 |
| LRPLFTRYELYIKNILE [YLR335W/NUP2] | 1.93 ± 0.033 |
| LRRASATVPSAPYRKQI [YAR002W/NUP60] | 2.64 ± 0.068 |
| LRRVEERFTKSKTLSLI [FAS1] | 1.79 ± 0.037 |
| LRSDIPCLSRSCTKCPQ [DIS3] | 2.92 ± 0.033 |
| LRSTIANLLQINVDNDP [YML103C/NUP188] | 1.15 ± 0.15 |
| LRYVIMKNPDVEFCGYS [RPC19] | 2.87 ± 0.091 |
| LSAEYLVILKPDLNIDR [SIN4] | 2.94 ± 0.045 |
| LSAVAQAESMKFKLLNG [RPS3] | 3.09 ± 0.079 |
| LSEATESDLYKLKECPF [RPB2] | 2.91 ± 0.1 |
| LSEDELRELDVELIESK [SMC4] | 3.23 ± 0.073 |
| LSESLTKFFDDAKSTPL [RPN9] | 3.12 ± 0.068 |
| LSEYDAIQKKDNKDKEG [YOR098C/NUP1] | 3.38 ± 0.067 |
| LSEYLTKFQTTDRESYP [YCS4] | 2.94 ± 0.14 |
| LSFGTATSDNKTTNTTP [YJL041W/NSP1] | 2.15 ± 0.094 |
| LSFINPKTGKVERSEAI [SEC65] | 3.22 ± 0.073 |
| LSGNPLTSVTNDICSVE [SIR4] | 2.96 ± 0.062 |
| LSGVSNSMDMVDGMAKV [RGR1] | 3.34 ± 0.064 |
| LSIAFENGDYAACEKLL [RPN12] | 3.24 ± 0.12 |
| LSIDKVLKKPNRAMEYD [RET1] | 1.98 ± 0.28 |
| LSIELEGGKNQAELLQL [YJL039C/NUP192] | 2.67 ± 0.11 |

| Sequence | protein stability index |
| --- | --- |
| LSLGMDFIKFDQIAVCE [BRN1] | 2.89 ± 0.071 |
| LSLQRANVEILAVEDKP [CSL4] | 1.61 ± 0.044 |
| LSNEFTATNSKGEQIAI [ECM29] | 3.26 ± 0.11 |
| LSQLCAVPLQIVSPQSN [RPO21] | 1.87 ± 0.04 |
| LSQSRIKIKSLEYEISK [YIL149C/MLP2] | 2.07 ± 0.041 |
| LSRPSLPKIKTVRKSIA [RPL35A] | 1.85 ± 0.054 |
| LSSDDLLGKESFKKIIK [YCS4] | 3.57 ± 0.1 |
| LSTSEDVSIEELLREWL [IRR1] | 1.53 ± 0.15 |
| LSVMCGCGTVKRFNIGA [RPR2] | 2.07 ± 0.18 |
| LSYYVEETNVDIGVLEE [SMC4] | 3.5 ± 0.1 |
| LTCSLYELYINKLTILG [IRR1] | 1.48 ± 0.045 |
| LTDKDAFETHYRRLFAK [CDC53] | 2.97 ± 0.043 |
| LTKKYSFKIFVDVLVIS [RRP42] | 1.44 ± 0.039 |
| LTLKEAELLVLKILKQV [PUP2] | 1.63 ± 0.25 |
| LTLLERKWVIFITKHLP [NUT1] | 2.57 ± 0.079 |
| LTLQEDYIKDEQRHLKR [RPT3] | 3.32 ± 0.07 |
| LTNLLSQLNIQLSQDEH [SRP72] | 3.09 ± 0.042 |
| LTQLLSMMSDGIEHFDI [RPO31] | 2.72 ± 0.089 |
| LTSDLVYFGDENKVMLP [RRI2] | 3.03 ± 0.068 |
| LTSGLLYSYLIKENFFE [YJL039C/NUP192] | 1.2 ± 0.077 |
| LTSVTRHGFNRSNTGAL [RPO21] | 2.51 ± 0.058 |
| LTTAREHHSSVKYASPN [FAS2] | 3.06 ± 0.04 |
| LVAIFGGQGNTDDYFEE [FAS1] | 3.23 ± 0.064 |
